This series concerns the molecule itself. Put plainly: crystal structure.

B1: Human placental aromatase (cytochrome P450 aromatase, CYP19A1) (enzyme, UniProt P11511 1-503, looked up)
chain: MVLEMLNPIHYNITSIVPEAMPAATMPVLLLTGLFLLVWNYEGTSSIPGPGYCMGIGPLISHGRFLWMGIGSACNYYNRVYGEFMRVWISGEETLIISKSSSMFHIMKHNHYSSRFGSKLGLQCIGMHEKGIIFNNNPELWKTTRPFFMKALSGPGLVRMVTVCAESLKTHLDRLEEVTNESGYVDVLTLLRRVMLDTSNTLFLRIPLDESAIVVKIQGYFDAWQALLIKPDIFFKISWLYKKYEKSVKDLKDAIEVLIAEKRRRISTEEKLEECMDFATELILAEKRGDLTRENVNQCILEMLIAAPDTMSVSLFFMLFLIAKHPNVEEAIIKEIQTVIGERDIKIDDIQKLKVMENFIYESMRYQPVVDLVMRKALEDDVIDGYPVKKGTNIILNIGRMHRLEFFPKPNEFTLENFAKNVPYRYFQPFGFGPRGCAGKYIAMVMMKAILVTLLRRFHVKTLQGQCVESIQKIHDLSLHPDETKNMLEMIFTPRNSDRCLEH
As to B1, the binding result is “binds”.

The values above are taken from article PMC3217041 (Steroids, 2011).
